# B1: Tracheary Element Differentiation Inhibitory Factor (TDIF) peptide [modified: hydroxyproline at 4 and 7; hydroxyproline at 4 and 7] [Arabidopsis thaliana] / extracellular domain of A. thaliana TDR (residues 30-642) [modified: … (parent)
# chain 1: HEVPSGPNPISN
# chain 2: LKFSPQLLSLLSLKTSLSGPPSAFQDWKVPVNGQNDAVWCSWSGVVCDNVTAQVISLDLSHRNLSGRIPIQIRYLSSLLYLNLSGNSLEGSFPTSIFDLTKLTTLDISRNSFDSSFPPGISKLKFLKVFNAFSNNFEGLLPSDVSRLRFLEELNFGGSYFEGEIPAAYGGLQRLKFIHLAGNVLGGKLPPRLGLLTELQHMEIGYNHFNGNIPSEFALLSNLKYFDVSNCSLSGSLPQELGNLSNLETLFLFQNGFTGEIPESYSNLKSLKLLDFSSNQLSGSIPSGFSTLKNLTWLSLISNNLSGEVPEGIGELPELTTLFLWNNNFTGVLPHKLGSNGKLETMDVSNNSFTGTIPSSLCHGNKLYKLILFSNMFEGELPKSLTRCESLWRFRSQNNRLNGTIPIGFGSLRNLTFVDLSNNRFTDQIPADFATAPVLQYLNLSTNFFHRKLPENIWKAPNLQIFSASFSNLIGEIPNYVGCKSFYRIELQGNSLNGTIPWDIGHCEKLLCLNLSQNHLNGIIPWEISTLPSIADVDLSHNLLTGTIPSDFGSSKTITTFNVSYNQLIGPIPSGSFAHLNPSFFSSNEGLCGDLVGKPCNSDRFNAGNADIDG
# Variants of: B1
# Assay: ITC
# Details: with extracellular domain of A. thaliana TDR (residues 30-642) [modified: N-glycosylated at N111, N356, N378, N471 and N525 (one GlcNAc visible on each in the struct); parent: 103 nM
row,Variant,Kd [nM]
1,chain 1 HEVPSGPAPISN,308
2,chain 1 HRVPSGPNPISN,543
3,chain 1 HAVPSGPNPISN,327
4,chain 1 HEVPSTPNPISN,2080
5,chain 1 HEVPSAPNPISN,1440
6,chain 1 HEAPSGPNPISN,1400
7,chain 1 AAAPSGPNPISN,252000
8,chain 1 HEVPSGPNPASN,641
9,chain 1 AEVPSGPNPISN,11800
10,chain 1 REVPSGPNPISN,329
11,chain 1 HEVPSGPNPISA,4700

# Same assay, conditions: with Tracheary Element Differentiation Inhibitory Factor (TDIF) peptide [modified: hydroxyproline at 4 and 7, parent: 103 nM
row,Variant,Kd [nM]
1,chain 2 F250A,307
2,chain 2 F252A,787
3,chain 2 F250A F252A,887
4,chain 2 Y205A,1650
5,chain 2 R392A R394A,306
6,chain 2 R109A F132A S133A S158A Y159A,3240
7,chain 2 S276A,455
8,chain 2 W324A,862

# Same assay, conditions: with Tracheary Element Differentiation Inhibitory Factor (TDIF) peptide [modified: hydroxyproline at 4 and 7, parent: 1
row,Variant,ratio to parent
1,chain 2 F252A,7.6
2,chain 2 Y205A,16

# Same assay, conditions: with extracellular domain of A. thaliana TDR (residues 30-642) [modified: N-glycosylated at N111, N356, N378, N471 and N525 (one GlcNAc visible on each in the struct); parent: 1
row,Variant,ratio to parent
1,chain 1 AAAPSGPNPISN,2450
2,chain 1 HEVPSGPNPASN,6.2
3,chain 1 HEVPSGPNPISA,45.6

# Reference: article PMC5383425, “Differential CLE peptide perception by plant receptors implicated from structural and functional analyses of TDIF-TDR interactions” (PLoS ONE, 2017)
